Legend:
Assay in all cases: BLI
[1] = target: hen egg-white lysozyme (HEL) (Gallus gallus) (UniProt P00698); settings: Buffer R: 20 mM HEPES pH 7.5, 20 mM NaOAc, 140 mM KOAc, 3 mM Mg(OAc)2, 0.1% Tween20, BLI temperature not stated, low values mean tight binding
[2] = system: Gmab anti-G4 antibody fragment (human (Garvan-2 scFv library)); settings: Buffer R: 20 mM HEPES pH 7.4-7.5, 20 mM NaOAc, 140 mM KOAc, 3 mM Mg(OAc)2, 0.1% Tween20, SPR at 20 C, BLI temperature not …
BG4 anti-G4 antibody = settings: Buffer R: 20 mM HEPES pH 7.4-7.5, 20 mM NaOAc, 140 mM KOAc, 3 mM Mg(OAc)2, 0.1% Tween20, SPR at 20 C, BLI temperature not …

hen egg-white lysozyme (HEL) (Gallus gallus), sequence (P00698 19-147): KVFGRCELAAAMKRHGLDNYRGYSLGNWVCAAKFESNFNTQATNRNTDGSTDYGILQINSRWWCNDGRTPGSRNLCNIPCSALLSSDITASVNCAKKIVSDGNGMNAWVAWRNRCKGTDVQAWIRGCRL

## GTTCGTTTAAATGTGTGTCGTCGTTCGCTATCC [LYS-S8-19-core13 (HNA)]
[1]; all-HNA
  Kd: 0.0688 µM
[2]; ka 8.47e4, kd 1.00e-2, all-HNA
  Kd: 0.118 µM

## CGGGCGGGCGCGAGGGAGGGG [KIT2 G4]
BG4 anti-G4 antibody; ka 7.9e4 M-1s-1, kd 1.5e-4 s-1
  Kd: 0.0019 µM
[2]; ka 7.5e4 M-1s-1, kd 2.7e-4 s-1
  Kd: 0.0036 µM

## GTTCGTTTAAATGTGTGTCGTCGTTCACTATCC [core13 G27A]
[1]; all-HNA
  Kd: 0.00928 µM

## GTTCGTTTAAATATGTGTCGTCGTTCGCTATCC [core13 G13A]
[1]; all-HNA
  Kd: 0.0979 µM

## GTGCTGTTCGTTTAAATGTGTGTCGTCGTTCGCTATCC [LYS-S8-19-core14 (HNA)]
BG4 anti-G4 antibody; all-HNA (1',5'-anhydrohexitol)
  Kd: 0.0053 µM
[1]; all-HNA (1',5'-anhydrohexitol)
  Kd: 0.0488 µM
[2]; all-HNA (1',5'-anhydrohexitol)
  Kd: 0.0323 µM

## GTTCGTTTAAATGTGTGTCGTCGTTCCCTATCC [core13 G27C]
[1]; all-HNA
  Kd: 0.116 µM
